Data: patent US20220411521A1 (Ablynx, published 2022)

T1: human GITR-Fc (Enzo Life Sciences, ALX-522-061-C050) (human, UniProt Q9Y5U5 26-162)
T1 construct: Bought protein; not shown: Fc part of the bought fusion protein; not described
T1 sequence: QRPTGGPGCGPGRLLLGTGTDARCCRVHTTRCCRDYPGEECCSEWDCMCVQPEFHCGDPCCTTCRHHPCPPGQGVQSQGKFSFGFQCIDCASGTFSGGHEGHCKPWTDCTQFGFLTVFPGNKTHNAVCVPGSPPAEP

T2: human GITR (human, UniProt Q9Y5U5 26-241)
T2 sequence: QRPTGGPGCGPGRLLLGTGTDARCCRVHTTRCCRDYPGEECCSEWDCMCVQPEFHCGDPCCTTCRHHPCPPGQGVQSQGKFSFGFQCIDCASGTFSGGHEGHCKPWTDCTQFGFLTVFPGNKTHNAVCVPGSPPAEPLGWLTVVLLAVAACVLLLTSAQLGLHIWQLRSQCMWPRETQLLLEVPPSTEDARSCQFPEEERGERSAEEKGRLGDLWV

B1: A0231003D11 (VHH)
VHH: EVQLVESGGGLVQAGESLRLSCAASGSIFSIDAMGWYRQAPGKQRELVAEISDHTTYGDSVKGRFTISRGNAENTVALQMNSLKPEDTGVYYCNVHHQRGWGTSITVTWGQGTQVTVSS
notes: Monovalent Nanobody expressed in E. coli with a triple Flag, HIS6 tag; also called A0231PMP003D11; PA0231PMP003D11.1; not shown: C-terminal triple FLAG and HIS6 tag
B2: A0231005A03 (VHH)
VHH: EVQLVESGGGLVQPGGSLRLSCAASETIFSIDSMAWYRQAPGKQRELVAAITGGGSPNYADSVKGRFTISSDVAKRTVYLQMNSLKPEDTAVYYCNAEGQAGWGTALMDYWGKGTLVTVSS
notes: Monovalent Nanobody expressed in E. coli with a triple Flag, HIS6 tag; also called A0231PMP005A03; PA0231PMP005A03.1; not shown: C-terminal triple FLAG and HIS6 tag
B3: A0231034A08 (VHH)
VHH: EVQLVESGGDLVQPGGSLRLSCAASGSVFSINDMGWFRQAPGKQRELVADIISRGVTNYADSVKGRFTISGDPAKNTVYLQMNSLKPEDTAVYYCNAHISTGWGRPHNNYWGQGTQVTVSS
notes: Monovalent Nanobody expressed in E. coli with a triple Flag, HIS6 tag; also called A0231PMP034A08; PA0231PMP034A08.1; not shown: C-terminal triple FLAG and HIS6 tag
B4: A0231033B02 (VHH)
VHH: EVQLVESGGGLVQPGGSLRLSCAASGTIFSISTMGWYRQAPGKQREVVAVTSGFSTNYSSAVKGRFTLSRDPAKNTVFLQMNSLQPEDTATYYCNAYLSLAWRDPDRDYWGQGTQVTVSS
notes: Monovalent Nanobody expressed in E. coli with a triple Flag, HIS6 tag; also called A0231PMP033B02; PA0231PMP033B02.1; not shown: C-terminal triple FLAG and HIS6 tag
B5: A0231004B01 (VHH)
VHH: EVQLVESGGGLVQPGGSLRLSCAASGSIFSIDSMGWYRQAPGKQRELVAAITSSTNYADSVKGRFTISRDNAKNTVYLQMNSLKPEDTAVYYCNLEGQAGWGTALINYWGKGTLVTVSS
notes: Monovalent Nanobody expressed in E. coli with a triple Flag, HIS6 tag; also called A0231PMP004B01; PA0231PMP004B01.1; not shown: C-terminal triple FLAG and HIS6 tag
B6: A0231052A08 (VHH)
VHH: EVQLVESGGGLVQAGGSLRLSCVASGSISSITAMGWHRQAPGAQREGVAVISRSGATMLVDSVKGRFTIVQDNAKNTVYLQMNSLKVEDTAVYGCSAITQGRTYWGQGTLVTVSS
notes: Monovalent Nanobody expressed in E. coli with a triple Flag, HIS6 tag; also called A0231PMP052A08; PA0231PMP052A08.1; not shown: C-terminal triple FLAG and HIS6 tag
B7: A023100129 (VHH)
chain: DVQLVESGGGVVQPGGSLRLSCAASGSIFSIDSMGWYRQAPGKQRELVAAITSSTNYADSVKGRFTISRDNSKNTVYLQMNSLRPEDTALYYCNLEGQAGWGTALINYWGQGTLVTVSSGGGGSGGGSEVQLVESGGGVVQPGGSLRLSCAASGSIFSIDSMGWYRQAPGKQRELVAAITSSTNYADSVKGRFTISRDNSKNTVYLQMNSLRPEDTALYYCNLEGQAGWGTALINYWGQGTLVTVSSGGGGSGGGSEVQLVESGGGVVQPGGSLRLSCAASGSIFSIDSMGWYRQAPGKQRELVAAITSSTNYADSVKGRFTISRDNSKNTVYLQMNSLRPEDTALYYCNLEGQAGWGTALINYWGQGTLVTVSSGGGGSGGGSEVQLVESGGGVVQPGGSLRLSCAASGSIFSIDSMGWYRQAPGKQRELVAAITSSTNYADSVKGRFTISRDNSKNTVYLQMNSLRPEDTALYYCNLEGQAGWGTALINYWGQGTLVTVSSGGGGSGGGSEVQLVESGGGVVQPGGSLRLSCAASGSIFSIDSMGWYRQAPGKQRELVAAITSSTNYADSVKGRFTISRDNSKNTVYLQMNSLRPEDTALYYCNLEGQAGWGTALINYWGQGTLVTVSSGGGGSGGGGSGGGGSGGGGSGGGGSGGGGSGGGGSEVQLVESGGGVVQPGGSLRLSCAASGFTFRSFGMSWVRQAPGKGPEWVSSISGSGSDTLYADSVKGRFTISRDNSKNTLYLQMNSLRPEDTALYYCTIGGSLSRSSQGTLVTVSSA

The binders below were run against T1, human GITR-Fc (Enzo Life Sciences, …) (assay: ProteOn XPR36; human GITR-Fc amine-coupled on GLC chip, Nanobody injected at 6 concentrations).
Method: Affinity was determined on the Proteon XPR36. Briefly, after human GITR-Fc (Enzo Life Sciences, ALX-522-061-C050) was immobilized on a GLC chip via amine coupling, a range of 6 concentrations of different monovalent Nanobodies (representing each family) were injected. The Ko values were determined by using the calculated association rate and dissociation rate constants (Table 1) (ProteOn Manager 3.1.0, Version 3.1.0.6 (2011)).

Row | Kd [nM] | koff [s⁻¹] | kon [M⁻¹ s⁻¹] | Binder
1 | 4.6 | 0.0029 | 630000 | B1
2 | 3.4 | 0.0023 | 680000 | B2
3 | 2.5 | 0.00067 | 270000 | B3
4 | 16 | 0.008 | 490000 | B4
5 | 2.6 | 0.0027 | 1.1e+06 | B5
6 | 24 | 0.00097 | 41000 | B6

These binders were tested against T2, human GITR (assay: cell-based or functional assay).

Row | EC50, IFN-γ read-out, human T cell activation assay [pM] | Maximal efficacy (%), human GITR ligand = 100%, IFN-γ read-out [%] | Binder
7 | 51.5 | 108 | B7

Each binder was assayed against T2, human GITR (assay: flow cytometry on activated human T cells, anti-FLAG detection).
Method: Binding of purified monovalent anti-GITR Nanobodies to human GITR expressed on activated T cells was evaluated in flow cytometry. For this purpose, PBMCs from healthy donors were cultured with Dynabeads® Human T-Activator CD3/CD28 (Gibco—Life Technologies #11131D) for 7 days in a 1/2 bead/cell ratio.
Dilution series of Nanobodies starting from […] were applied to the cells. Nanobodies were allowed to associate for 30 minutes at 4° C. in FACS buffer (PBS supplemented with 10% FBS and 0.05% azide). Cells were washed by centrifugation and probed with anti-FLAG antibodies (Sigma F1804) for 30 minutes at 4° C., to detect bound Nanobody. […] Cells were washed and incubated with TOPRO3 to stain for dead cells which were subsequently removed during the gating procedure. The cells were then analysed via a BD FACSArray.

Row | EC50 [nM] | Binder
8 | 1.3 | B1
9 | 0.79 | B2
10 | 0.54 | B3
11 | 21 | B4
12 | 0.61 | B5
13 | 23 | B6

Molecular target: T2, human GITR
Test: cell-based or functional assay
Remark: another data set of the same source

Row | EC50, HEK293_NF-κB luc reporter [pM] | Efficacy (%), human GITR ligand = 100%, HEK293_NF-κB luc reporter [%] | Binder
14 | 11.8 | 146 | B7
